B1: Bovine lipoprotein lipase (enzyme, UniProt P11151 29-478, looked up)
chain: DRITGGKDFRDIESKFALRTPEDTAEDTCHLIPGVTESVANCHFNHSSKTFVVIHGWTVTGMYESWVPKLVAALYKREPDSNVIVVDWLSRAQQHYPVSAGYTKLVGQDVAKFMNWMADEFNYPLGNVHLLGYSLGAHAAGIAGSLTNKKVNRITGLDPAGPNFEYAEAPSRLSPDDADFVDVLHTFTRGSPGRSIGIQKPVGHVDIYPNGGTFQPGCNIGEALRVIAERGLGDVDQLVKCSHERSVHLFIDSLLNEENPSKAYRCNSKEAFEKGLCLSCRKNRCNNMGYEINKVRAKRSSKMYLKTRSQMPYKVFHYQVKIHFSGTESNTYTNQAFEISLYGTVAESENIPFTLPEVSTNKTYSFLLYTEVDIGELLMLKLKWISDSYFSWSNWWSSPGFDIGKIRVKAGETQKKVIFCSREKMSYLQKGKSPVIFVKCHDKSLNRKSG
notes: lipoprotein lipase (LPL), bovine, purified from bovine milk; In the RICS experiments 10 nM of the LPL carried ATTO610 (NHS ester labelling) and 190 nM was unlabelled; it says that most experiments were done with bovine LPL; also called bLPL; bovine LPL; source: purified from bovine milk
B2: Recombinant N-terminal domain of ANGPTL4 (nANGPTL4^26-184) (domain or fragment, UniProt Q9BY76 26-184, looked up)
chain: GPVQSKSPRFASWDEMNVLAHGLLQLGQGLREHAERTRSQLSALERRLSACGSACQGTEGSTDLPLAPESRVDPEVLHSLQTQLKAQNSRIQQLFHKVAQQQRHLEKQHLRIQHLQSQFGLLDHKHLDHEVAKPARRKRLPEMAQPVDPAHNVSRLHRL
notes: angiopoietin-like protein 4 (ANGPTL4), N-terminal domain, residues 26-184
B3: Full-length ANGPTL4 (natural protein)
chain: GPVQSKSPRFASWDEMNVLAHGLLQLGQGLREHAERTRSQLSALERRLSACGSACQGTEGSTDLPLAPESRVDPEVLHSLQTQLKAQNSRIQQLFHKVAQQQRHLEKQHLRIQHLQSQFGLLDHKHLDHEVAKPARRKRLPEMAQPVDPAHNVSRLHRLPRDCQELFQVGERQSGLFEIQPQGSPPFLVNCKMTSDGGWTVIQRRHDGSVDFNRPWEAYKAGFGDPHGEFWLGLEKVHSITGDRNSRLAVQLRDWDGNAELLQFSVHLGGEDTAYSLQLTAPVAGQLGATTVPPSGLSVPFSTWDQDHDLRRDKNCAKSLSGGWWFGTCSHSNLNGQYFRSIPQQRQKLKKGIFWKTWRGRYYPLQATTMLIQPMAAEAAS

The target in assay [1] is T1, Bovine serum albumin (bovine, UniProt P02769 25-607).
T1 construct: serum albumin, bovine; also called BSA; source: bought: Sigma Aldrich (#A7906)
T1 sequence (P02769 25-607): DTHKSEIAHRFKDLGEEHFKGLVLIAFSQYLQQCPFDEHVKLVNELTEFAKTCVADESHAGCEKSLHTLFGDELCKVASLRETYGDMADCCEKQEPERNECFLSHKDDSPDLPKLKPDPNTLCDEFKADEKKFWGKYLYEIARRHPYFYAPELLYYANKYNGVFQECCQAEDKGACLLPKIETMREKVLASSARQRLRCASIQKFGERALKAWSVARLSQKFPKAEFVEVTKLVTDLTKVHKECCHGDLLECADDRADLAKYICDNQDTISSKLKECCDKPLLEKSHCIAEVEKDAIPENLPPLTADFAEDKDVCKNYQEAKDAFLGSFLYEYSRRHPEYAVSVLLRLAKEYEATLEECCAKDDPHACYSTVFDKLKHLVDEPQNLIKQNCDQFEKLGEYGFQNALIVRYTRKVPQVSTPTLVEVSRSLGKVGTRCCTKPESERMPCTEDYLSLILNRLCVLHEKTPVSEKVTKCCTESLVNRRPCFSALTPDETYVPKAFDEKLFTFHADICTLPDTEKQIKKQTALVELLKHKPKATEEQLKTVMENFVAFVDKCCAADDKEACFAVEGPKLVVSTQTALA
As to the kind of experiment: not stated; equilibrium dissociation constant of the LPL-albumin complex as given in the introduction; experiment not named.

Assay [2] concerns the target T1, Bovine serum albumin. As to the kind of experiment: ITC; 752 μM BSA in the syringe titrated (38 injections) into 1.695 μM bLPL with 10 IU/ml heparin; 20 mM HEPES, 150 mM NaCl, pH 7.4; 25°C; apparent KD of the initial binding phase. The following applies: both partners purified.
A further assay deals with T2, Human serum albumin (human, UniProt P02768 25-609).
T2 construct: serum albumin, human; also called HSA
T2 sequence (P02768 25-609): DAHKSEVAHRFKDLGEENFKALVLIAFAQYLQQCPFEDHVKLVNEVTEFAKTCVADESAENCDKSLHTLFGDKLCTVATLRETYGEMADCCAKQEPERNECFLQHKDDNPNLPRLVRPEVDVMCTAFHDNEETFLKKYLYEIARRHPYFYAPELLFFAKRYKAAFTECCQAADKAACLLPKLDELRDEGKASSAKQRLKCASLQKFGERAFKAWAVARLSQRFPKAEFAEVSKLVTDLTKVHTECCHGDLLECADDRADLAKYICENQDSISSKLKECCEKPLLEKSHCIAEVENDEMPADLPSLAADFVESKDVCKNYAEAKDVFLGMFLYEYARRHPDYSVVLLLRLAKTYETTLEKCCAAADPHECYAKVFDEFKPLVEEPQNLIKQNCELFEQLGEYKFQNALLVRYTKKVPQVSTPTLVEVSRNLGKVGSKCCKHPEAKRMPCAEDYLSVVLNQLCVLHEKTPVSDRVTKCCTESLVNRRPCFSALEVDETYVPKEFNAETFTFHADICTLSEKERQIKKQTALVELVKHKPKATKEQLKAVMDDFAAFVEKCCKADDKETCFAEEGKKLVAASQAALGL
The assay can be described thus: SPR; nANGPTL4 immobilised; HSA at various concentrations flowed over; plateau values plotted against HSA concentration after subtracting non-specific binding. The following applies: both partners purified.

The target in assay [3] is B1. The assay can be described thus: cell-based or functional assay.
The target of assay [4] is B1.

As to B1, the figures for the Kd with Bovine serum albumin [1] and with Bovine serum albumin [2] were 30 to 70 µM and 12.6 µM, respectively.

B2 had a Kd with Human serum albumin of 500 ± 51 µM. Further, the “inactivation rate constant (ki) of LPL by 100 nM nANGPTL4 during lipolysis of CM/VLDL (ITC), at 10 or 50 mg/ml BSA against 2 mg/ml BSA” value in assay [3] was around 1.6 fold.

With B3, in assay [4], the residual LPL activity (ITC, human plasma) after 130 min of 200 nM LPL with 1 μM ANGPTL4 in the presence of both heparin and BSA came to 35%; the residual LPL activity (ITC, human plasma) after 130 min of 200 nM LPL with 1 μM ANGPTL4 in the presence of heparin or BSA alone amounted to 55%.

For the origin of these results see article PMC10096250, “Combined action of albumin and heparin regulates lipoprotein lipase oligomerization, stability, and ligand interactions” (PLOS ONE, 2023).
